What all share (conditions): EMSA: 0.1 ng 32P probe, 15 ul, 30 min at 25 C (stated for GadE/RcsBD56E), 6% native PAGE; H-NS: 100-200 ng PCR fragment plus pBR322 digest, 15 min room …
Background: In EMSA bound probe runs differently from free probe, usually more slowly.

For data set [1], the target named is T1, His6-RcsBD56E;GadE-His6 D56E (Escherichia coli;Escherichia coli) (UniProt P0DMC7+P63204).
T1 sequence 1: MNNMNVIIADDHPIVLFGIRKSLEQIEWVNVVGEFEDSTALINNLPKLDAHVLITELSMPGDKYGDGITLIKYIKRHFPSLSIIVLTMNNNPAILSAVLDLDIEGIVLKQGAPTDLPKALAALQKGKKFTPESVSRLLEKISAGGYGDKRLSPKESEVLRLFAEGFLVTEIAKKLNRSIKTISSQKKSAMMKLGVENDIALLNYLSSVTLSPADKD
T1 sequence 2: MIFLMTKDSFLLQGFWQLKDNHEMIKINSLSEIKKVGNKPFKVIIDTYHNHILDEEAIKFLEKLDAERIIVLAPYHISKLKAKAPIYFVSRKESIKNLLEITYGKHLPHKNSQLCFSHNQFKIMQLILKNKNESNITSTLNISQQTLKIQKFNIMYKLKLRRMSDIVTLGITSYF
The data set is described as follows: EMSA.

Data set [2] addresses T2, H-NS-His6 (Escherichia coli) (UniProt P0ACF8).
T2 sequence: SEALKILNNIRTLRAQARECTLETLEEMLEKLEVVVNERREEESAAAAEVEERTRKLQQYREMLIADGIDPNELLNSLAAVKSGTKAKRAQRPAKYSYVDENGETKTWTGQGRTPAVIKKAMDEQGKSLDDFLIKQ
The data set is described as follows: competitive EMSA.

Data set [3] addresses T3, Strep-AdiY (Escherichia coli) (UniProt P33234).
T3 sequence: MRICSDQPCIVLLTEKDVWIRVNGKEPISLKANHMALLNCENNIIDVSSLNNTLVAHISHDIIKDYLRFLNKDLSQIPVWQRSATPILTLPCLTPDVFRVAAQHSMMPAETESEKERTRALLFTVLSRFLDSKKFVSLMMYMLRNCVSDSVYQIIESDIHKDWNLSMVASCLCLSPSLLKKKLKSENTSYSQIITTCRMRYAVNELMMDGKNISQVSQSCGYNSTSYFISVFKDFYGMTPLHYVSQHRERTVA
The data set is described as follows: EMSA.

Data set [4] addresses T4, HdfR-His6 (Escherichia coli) (UniProt P0A8R9).
T4 sequence: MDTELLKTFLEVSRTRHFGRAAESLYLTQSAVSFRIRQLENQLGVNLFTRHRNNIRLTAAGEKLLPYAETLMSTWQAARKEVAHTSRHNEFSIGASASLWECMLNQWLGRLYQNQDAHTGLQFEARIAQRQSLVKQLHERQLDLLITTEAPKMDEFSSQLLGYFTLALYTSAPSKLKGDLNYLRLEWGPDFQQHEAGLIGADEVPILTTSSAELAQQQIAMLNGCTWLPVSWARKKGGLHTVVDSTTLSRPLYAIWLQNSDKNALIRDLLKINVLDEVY
The data set is described as follows: EMSA.

For “AATGATACTTGTCTGAAAAACAGATTTACGACGATATAAAATAATAATACTTATATGTTCGCTGATTTTAAGCACCGAGACTATCCGGTCTTTTACCAAATAATGAAGAATAATCCCTCCCTGGAAGATAATTGTAAAAAACAACAGCATAAGAATTAATCTTAGGATAAATTTTTATTTATCATGGCCTTTTGAACGCTGAAAAGTAGCGCTCTGCAAAGTAAACCCCGCTATAGTTATGCTATGCATTTGTCTTTAATGATATCTCGTCATTATATTAACAGGATGAAATTATCATTA (double strand) [yhiM promoter]”, the binding entry in data set [1] and in data set [2] was “binds” each time.
Take “ATCCTGCACGCTCCTAATTCTTTGACCGAGCTAGTTATGGCGCGGAGTATTAGTTACGCTTGACAGAGTGTAAAACAAAACATTTAAATCATAACGACAAATAATTTTGCGGAGAGCACTGTGGATACGGAATTGTTAAAAACTTTCCTGGAAGTTAGCCGAACGCGTCACTTTGGTCGAGCGGCTGAATCGCTCTATCTGACCCAGTCAGCAGTGAGCTTTCGAATCAGACAACTGGAAAATCAACTGGGTGTGAACCTT (double strand) [hdfR promoter]”: the binding result in data set [2] was “binds”.
“ATGCCAAAAACGCGTCTAAGAATGCAGTCGATTTAATAAAAATTTCCTAATTGCAGTATCTGATGCATCTGTAACTCATTGTATTGAAATAAAAATATCTGATTTTGATATTTTCCATCAACATGACATATACAGAAAACCAGGTTATAACCTCAGTGTCG (double strand) [hdeABD promoter]”: the binding entry in data set [3] is on record as “no binding”.
Regarding “CGCATAATTTCCAGCAATCTTTGTTTATTTGCAATTATTTTTGTTGGGCTTTTTGTAGGTTATTTGTACAGCAAAATGGCGCTTGTACATCTATTTCCCCCAATGCAGGATGATAAATATCACGGGAGAATAGAGAATCATCAATCAGGTAAGAGTCTGGAATTTCACACTGTACCCTTTATACTGCCCT (double strand) [rcsD promoter]”, the binding result in data set [2] is listed as “binds”.
On to “GAATAAAAATAGATTTTATGTACTTTTAAAACAATGCACTATATTATGGGGTGATGGATATTCATGTCACGCCCCAAAATTAACTGAGTTCACCTAAACAGAAAGGATATAAACATCAGACAGGTTTACGTTACTATCAGGCATATCACCTCAGAATCAGATGAAAACTATAAAGAAATATCTATTATGGTTTTAA (double strand) [slp-dctR promoter]”, for which the figures for the binding entry in data set [3] and in data set [2] were “no binding” and “binds”, respectively.
As for “GGTCGCTCCTTGCCTGAAGTCATCCTTCAATACGTTAAGGGCGAAATCATACCGTGGGGCAATGAGTTATTACGGGCGTTTATTGCGAAGGGAGGGTGACGAAATGCACAGAAAACAAAA (double strand) [aslB promoter]”, the binding result is given as “binds” in data set [1], “no binding” in data set [4] and “no binding” in data set [3].
In the case of “TCGTTATGCAGCGATATTTTTTGCTGTTCATGATAAATATCGAATGAACGACGAATGAGGATCACCGAGCAGACATGAGTCATGATTATCCCTTATATTTCATACTGCGATTATTTCAATTTCAGTATACTAATGAAATGATGCCAGACTGTTTCTTAGCGCAAAAACTGCCAGATTTGGTAGGACCAAAATTTATCCACAAAGTAGTTTTGCATAACAGTTAATTGATAATAAGTAAATGCAGCACGAATATATTTTCGCACAGCGTATAGCTTA (double strand) [gadW promoter]”, in data set [2], the binding result was “binds”.
Take “TGGCCTTAGGCCTTTTGAGTATGGCAACGTTTTCATAAAAATTGCTGCAAACAAAAATGTCATACTTTTTGCGCGGCCCCACCCCGCGCTTTTTTTTGCCTGTTATTTATCCTGTAAAAAAATATGTACATGAGAAATTACTATAAAAATTTGTACTATTAGTAAAAC (double strand) [adiY promoter]”: the binding entry in data set [2] is given as “binds”.
Turning to “TTATATATCCATGTTGGCGATAATCCCTTTGTATGTACTGTGCATCATCGCTATTACAAATCCTAATAATTCATTTCCACACAGGATAAGTAGATGAAGAAAAAAATTGAATC (double strand) [ydeP promoter]”, the binding result in data set [2] is on record as “binds”.
The same measure, in the same setting: as for “TTGCTCATGCAAAGACTAACAATCCATTAAAATAGTAAGTGCTCCGGACAATTTTCCATGGATTATTTTCTGAACATTTTTCTTTGGCAAAGATGATGAATTTTGATGGTAAGGAATATTACTTCTGGTTCTCAGTAAAATCCTTTCGTAATACTATGTAATCAAGAAGTTTATGGCTGGTAAAAATAACGTCTTGCATTCACCAATAATATGTAAATAAACCCATCTATAGATGGTAAAAATAGGTTGTGGCAATTATCATTGCATCATTCCCTTTTCGAATG (double strand) [cadC promoter]”, the entry is “binds”.

The record behind these values is PMC2984483.
